Data from patent US20180011102A1 (University of Texas, published 2018).

B1: endogenous TOM20 of U87 cells (receptor, human, UniProt Q15388 1-145, looked up)
chain: MVGRNSAIAAGVCGALFIGYCIYFDRKRRSDPNFKNRLRERRKKQKLAKERAGLSKLPDLKDAEAVQKFFLEEIQLGEELLAQGEYEKGVDHLTNAIAVCGQPQQLLQVLQQTLPPPVFQMLLTKLPTISQRIVSAQSLAEDDVE
B2: endogenous PDHK1 of U87 cell mitochondria (enzyme)
chain: not shown
notes: also called pyruvate dehydrogenase kinase 1
B3: SFB-PDHK4 expressed in U87 cells (enzyme)
chain: not shown
notes: not shown: SFB tag, pcDNA6/SFB vector
B4: SFB-PDHK3 expressed in U87 cells (enzyme)
chain: not shown
notes: as for B3
B5: endogenous PGK1 (phosphoglycerate kinase 1) of U87 human GBM cells (enzyme)
chain: SLSNKLTLDKLDVKGKRVVMRVDFNVPMKNNQITNNQRIKAAVPSIKFCLDNGAKSVVLMSHLGRPDGVPMPDKYSLEPVAVELKSLLGKDVLFLKDCVGPEVEKACANPAAGSVILLENLRFHVEEEGKGKDASGNKVKAEPAKIEAFRASLSKLGDVYVNDAFGTAHRAHSSMVGVNLPQKAGGFLMKKELNYFAKALESPERPFLAILGGAKVADKIQLINNMLDKVNEMIIGGGMAFTFLKVLNNMEIGTSLFDEEGAKIVKDLMSKAEKNGVKITLPVDFVTADKFDENAKTGQATVASGIPAGWMGLDCGPESSKKYAEAVTRAKQIVWNGPVGVFEWEAFARGTKALMDEVVKATSRGCITIIGGGDTATCCAKWNTEDKVSHVSTGGGASLELLEGKVLPGVDALSNI
notes: Endogenous protein from cell lysates

Key:
[1] = target: T1, SFB-PGK1 R39/K41A (human, UniProt P00558 1-417); test: streptavidin pull-down from U87 cells (FIG. 3E)
T1 construct: not shown: SFB (S-Flag-Biotin) tag, pcDNA6/SFB vector
T1 sequence (looked up): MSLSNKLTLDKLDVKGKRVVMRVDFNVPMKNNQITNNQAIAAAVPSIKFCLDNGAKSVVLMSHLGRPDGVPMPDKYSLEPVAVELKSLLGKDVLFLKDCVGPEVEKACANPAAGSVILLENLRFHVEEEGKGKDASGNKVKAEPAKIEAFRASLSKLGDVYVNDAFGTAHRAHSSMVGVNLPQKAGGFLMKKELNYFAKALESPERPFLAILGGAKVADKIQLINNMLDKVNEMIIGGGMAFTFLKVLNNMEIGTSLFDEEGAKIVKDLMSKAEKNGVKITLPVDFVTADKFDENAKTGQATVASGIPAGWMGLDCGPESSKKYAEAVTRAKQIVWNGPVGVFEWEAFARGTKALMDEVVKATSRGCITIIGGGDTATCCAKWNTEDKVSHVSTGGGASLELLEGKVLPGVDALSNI

[2] = target: T2, SFB-PGK1 Δ1-57 (human, UniProt P00558 58-417); test: streptavidin pull-down from U87 cells (FIG. 3D)
T2 construct: also called PGK1 Δ1-57 mutant; not shown: C-terminal SFB (S-Flag-Biotin) tag and any linker or added start Met of the pcDNA6/SFB construct
T2 sequence: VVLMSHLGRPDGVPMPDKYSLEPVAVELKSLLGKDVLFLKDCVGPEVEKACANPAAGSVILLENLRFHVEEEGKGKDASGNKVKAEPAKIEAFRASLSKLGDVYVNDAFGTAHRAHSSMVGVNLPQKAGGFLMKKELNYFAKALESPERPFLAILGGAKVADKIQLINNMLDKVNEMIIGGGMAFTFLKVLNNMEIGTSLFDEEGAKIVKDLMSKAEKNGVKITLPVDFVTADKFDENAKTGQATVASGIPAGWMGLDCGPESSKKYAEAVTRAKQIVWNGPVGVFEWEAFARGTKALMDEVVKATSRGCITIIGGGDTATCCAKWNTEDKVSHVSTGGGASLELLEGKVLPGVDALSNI

[3] = target: B5; test: PGK1 immunoprecipitated from mitochondria of U87 cells, anti-PDHK1 immunoblot (FIG. 4B)
[4] = target: B5; test: streptavidin pull-down from mitochondrial fractions of U87 cells (FIG. 14C)
Protocol: (§1) Immunoblotting analyses were performed with the indicated antibodies. […] Immunoblotting analyses were performed with the indicated antibodies. […] Immunoblotting analyses were performed with the indicated antibodies. […] ATP concentrations in mitoplast isolated from U87 or U251 cells treated with or without hypoxia for 6 h were measured. […] Mitochondria fractions of U87 cells treated with or without hypoxia for 6 h were immunodepleted with or without an anti-PDHK1 pT338 antibody. Immunoblotting analyses were performed with the indicated antibodies. […] U87 and U251 cells expressing PGK1 shRNA were reconstituted to express WT rPGK1 or rPGK1 T378P. Immunoblotting analyses were performed with the indicated antibodies. FIGS. 14M-N. U87 and U251 cells with PGK1 shRNA and with reconstituted expression of WT rPGK1 or rPGK1 T378P were stimulated with or without hypoxia for 6 h. Mitochondria fractions were prepared. Immunoblotting analyses were performed with the indicated antibodies. […] Data represent the means±SD of three independent experiments. Immunoblotting analyses were performed with an anti-PGK1 antibody. […] U87 cells were stimulated with or without hypoxia for 6 h. Immunoblotting analyses of mitochondrial lysates were performed with the indicated antibodies.

[5] = target: SFB-PDHK2 expressed in U87 cells (human, UniProt Q15119 1-407); test: as above
Protocol: as §1

Binder: B1
- binding result [1]: no binding
- binding result [2]: no binding

Binder: B2
- binding result [3]: binds

Binder: B3
- binding result [4]: no binding

Binder: B4
- binding result [4]: no binding

Binder: B5
- binding result [5]: no binding
